Data set [1] addresses T1, Lin28 C139A/C161A (Mus musculus (murine), UniProt Q8K3Y3 1-209, C139A;C161A).
T1 sequence: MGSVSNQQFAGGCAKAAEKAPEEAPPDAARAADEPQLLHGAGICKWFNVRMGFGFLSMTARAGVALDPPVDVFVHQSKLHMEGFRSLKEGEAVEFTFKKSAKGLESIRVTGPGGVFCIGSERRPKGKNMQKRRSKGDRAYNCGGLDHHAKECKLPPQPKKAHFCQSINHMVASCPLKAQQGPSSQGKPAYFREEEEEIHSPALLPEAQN
The data set can be described thus: EMSA (stoichiometric); 0.5 µM RNA; EMSA: 50 mM Tris pH 7.6, 50 mM NaCl, 10% glycerol, 0.05% NP-40 alternative, 2 mM DTT, 4°C; 2-AP: 50 mM Tris pH 7.6, 50 mM NaCl, 10% glycerol, 4°C; FRET: EMSA buffer, 30°C. As to conditions: protein: recombinant; label: 5'-32P; hairpin.

For data set [2], the target named is T2, Lin28 (Lin28A) (Mus musculus (murine), UniProt Q8K3Y3 1-209).
T2 sequence: T1 sequence with A139C, A161C
The data set is described as above. As to conditions: protein: recombinant, label: 5'-32P.

The target in data set [3] is T3, Lin28 119-180 (Mus musculus (murine), UniProt Q8K3Y3 119-180).
T3 sequence: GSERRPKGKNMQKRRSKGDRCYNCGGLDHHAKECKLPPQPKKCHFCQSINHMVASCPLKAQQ
The description is as above. Conditions: protein: recombinant, label: 5'-32P.

In data set [4] the target is T2, Lin28 (Lin28A). Briefly: EMSA; Hill n = 2 ± 1; EMSA: 50 mM Tris pH 7.6, 50 mM NaCl, 10% glycerol, 0.05% NP-40 alternative, 2 mM DTT, 4°C; 2-AP: 50 mM Tris pH 7.6, 50 mM NaCl, 10% glycerol, 4°C; FRET: EMSA buffer, 30°C. Conditions: protein: recombinant; label: 5'-32P; hairpin. Background: A gel shift assay detects complexes by their altered migration in electrophoresis.

Data set [5] addresses T2, Lin28 (Lin28A). The data set can be described thus: EMSA; EMSA: 50 mM Tris pH 7.6, 50 mM NaCl, 10% glycerol, 0.05% NP-40 alternative, 2 mM DTT, 4°C; 2-AP: 50 mM Tris pH 7.6, 50 mM NaCl, 10% glycerol, 4°C; FRET: EMSA buffer, 30°C. As to conditions: protein: recombinant; label: 5'-32P.
The target in data set [6] is T3, Lin28 119-180. The data set is described as above. As to conditions: protein: recombinant; label: 5'-32P.
The target in data set [7] is T1, Lin28 C139A/C161A. The data set can be described thus: FRET strand displacement; 25 nM RNA, 30°C; ΔFRETmax 0.77; EMSA: 50 mM Tris pH 7.6, 50 mM NaCl, 10% glycerol, 0.05% NP-40 alternative, 2 mM DTT, 4°C; 2-AP: 50 mM Tris pH 7.6, 50 mM NaCl, 10% glycerol, 4°C; FRET: EMSA buffer, 30°C. Conditions: protein: recombinant; label: 5'-Cy5 (S1); 5'-Cy3 (S3); blunt, 5-nt G-rich bulge in strand 1.

In data set [8] the target is T2, Lin28 (Lin28A). Briefly: FRET strand displacement; 25 nM RNA, 30°C; ΔFRETmax 0.84; EMSA: 50 mM Tris pH 7.6, 50 mM NaCl, 10% glycerol, 0.05% NP-40 alternative, 2 mM DTT, 4°C; 2-AP: 50 mM Tris pH 7.6, 50 mM NaCl, 10% glycerol, 4°C; FRET: EMSA buffer, 30°C. Conditions: protein: recombinant; label: 5'-Cy5 (S1); 5'-Cy3 (S3); blunt, 5-nt G-rich bulge in strand 1.
For data set [9], the target named is T3, Lin28 119-180. The data set can be described thus: FRET strand displacement; 25 nM RNA, 30°C; ΔFRETmax 0.24, binding without displacement; EMSA: 50 mM Tris pH 7.6, 50 mM NaCl, 10% glycerol, 0.05% NP-40 alternative, 2 mM DTT, 4°C; 2-AP: 50 mM Tris pH 7.6, 50 mM NaCl, 10% glycerol, 4°C; FRET: EMSA buffer, 30°C. As to conditions: protein: recombinant; label: 5'-Cy5 (S1); 5'-Cy3 (S3); blunt, 5-nt G-rich bulge in strand 1.

In data set [10] the target is T2, Lin28 (Lin28A). The data set can be described thus: EMSA; 1:1 complex; EMSA: 50 mM Tris pH 7.6, 50 mM NaCl, 10% glycerol, 0.05% NP-40 alternative, 2 mM DTT, 4°C; 2-AP: 50 mM Tris pH 7.6, 50 mM NaCl, 10% glycerol, 4°C; FRET: EMSA buffer, 30°C. Conditions: protein: recombinant; label: 5'-32P; hairpin.
In data set [11] the target is T2, Lin28 (Lin28A). The data set can be described thus: EMSA; Hill n = 1.3 ± 0.1; EMSA: 50 mM Tris pH 7.6, 50 mM NaCl, 10% glycerol, 0.05% NP-40 alternative, 2 mM DTT, 4°C; 2-AP: 50 mM Tris pH 7.6, 50 mM NaCl, 10% glycerol, 4°C; FRET: EMSA buffer, 30°C. Conditions: protein: recombinant; label: 5'-32P; hairpin.
In data set [12] the target is T2, Lin28 (Lin28A). Briefly: 2-AP fluorescence; 500 nM RNA (stoichiometric); EMSA: 50 mM Tris pH 7.6, 50 mM NaCl, 10% glycerol, 0.05% NP-40 alternative, 2 mM DTT, 4°C; 2-AP: 50 mM Tris pH 7.6, 50 mM NaCl, 10% glycerol, 4°C; FRET: EMSA buffer, 30°C. As to conditions: protein: recombinant; label: 2-AP; hairpin.
Data set [13] has as its target T4, Lin28 C139A/C161A;Lin28 119-180 (Mus musculus (murine);Mus musculus …, UniProt Q8K3Y3;Q8K3Y3 1-209;119-180, C139A;C161A|).
T4 sequence 1: T1 sequence
T4 sequence 2: T3 sequence
Briefly: EMSA (stoichiometric); 1:1:1 and 1:1:2 RNA:P3:P2 complexes; EMSA: 50 mM Tris pH 7.6, 50 mM NaCl, 10% glycerol, 0.05% NP-40 alternative, 2 mM DTT, 4°C; 2-AP: 50 mM Tris pH 7.6, 50 mM NaCl, 10% glycerol, 4°C; FRET: EMSA buffer, 30°C. As to conditions: protein: recombinant;recombinant; tags: ;; label: 5'-32P; hairpin with 5' G-rich bulge and internal loop.

In data set [14] the target is T2, Lin28 (Lin28A). Briefly: 2-AP fluorescence; 500 nM RNA; second Lin28; EMSA: 50 mM Tris pH 7.6, 50 mM NaCl, 10% glycerol, 0.05% NP-40 alternative, 2 mM DTT, 4°C; 2-AP: 50 mM Tris pH 7.6, 50 mM NaCl, 10% glycerol, 4°C; FRET: EMSA buffer, 30°C. As to conditions: protein: recombinant; label: 2-AP; hairpin.
Data set [15] addresses T2, Lin28 (Lin28A). Briefly: EMSA; Hill n = 1.46 ± 0.01; EMSA: 50 mM Tris pH 7.6, 50 mM NaCl, 10% glycerol, 0.05% NP-40 alternative, 2 mM DTT, 4°C; 2-AP: 50 mM Tris pH 7.6, 50 mM NaCl, 10% glycerol, 4°C; FRET: EMSA buffer, 30°C. As to conditions: protein: recombinant; label: 5'-32P; hairpin.
Setting [16] is: hairpin with 5' G-rich bulge and internal loop.

We go through 20 molecules from paper PMC3985620, “Stepwise assembly of multiple Lin28 proteins on the terminal loop of let-7 miRNA precursors”.

Positions count from the first letter of the chain named.

B1: TL-let-7d (structured_RNA)
RNA: GCAGAUUUAGGGCAGAGAUUUUGCCCACAAGGAGUUAUCUGCA
For B1, the binding result in data set [1], in [2] (hairpin) and in data set [3] (hairpin) was “binds” in each case.

B2: TL-let-7g Δbulge (structured_RNA)
RNA: GCAGAUGUCUAUGAUACCACCCGGUACAGGAGAUAUCUGCA
Regarding B2, in data set [4], the Kd amounted to 0.9 ± 0.2 nM.

B3: TL28-41V (ssRNA)
RNA: GGUACACCACAUAU
With B3, the Kd in [5] is approximately 43.3 nM.

B4: TL13-26 (ssRNA)
RNA: UCUAUGAUACCACC
Turning to B4, the Kd in data set [5] is approximately 43.3 nM.

B5: TL5-18 (ssRNA)
RNA: AUUGAGGGUCUAUA
Regarding B5, the Kd in [5] came out at 1.7 ± 0.4 nM. The binding result in data set [6] is given as “no binding”.

B6: TL28-41 (ssRNA)
RNA: GGUACAGGAGAUAU
Take B6: the Kd in data set [5] was found to be 0.29 ± 0.08 nM. The binding result in [6] is reported as “no binding”.

B7: duplexbulge (dsRNA)
RNA 1: CGUACAGAUUGAGGGUGACAUCG
RNA 2: CGAUGUCAUAUCUGUACG
Take B7: the “apparent K (half saturation)” value worked out at 354 nM in data set [7], 58 nM in data set [8] and 99 nM in data set [9].

B8: TL-miR-21a (structured_RNA)
RNA: GCGACUGUUGAAUCUCAUGGCGCA
In the case of B8, the dissociation constant (Kd) in data set [10] amounted to 13 nM.

B9: TL-let-7g Δiloop (structured_RNA)
RNA: GCAGAUUGAGGGUCUUGUACCACCCGGUACAAGAUAUCUGCA
Consider B9, for which, in data set [11], the Kd came to 0.52 ± 0.09 nM.

B10: TL19-32 (ssRNA)
RNA: AUACCACCCGGUAC
In the case of B10, the binding result in [5] is “no binding”.

B11: TL-let-7g 2-AP9 (structured_RNA)
RNA: GCAGAUUGAGGGUCUAUGAUACCACCCGGUACAGGAGAUAUCUGCA
modifications: 2-aminopurine at A9
For the molecule B11, the “apparent K (half saturation)” value in data set [12] is approximately 548 nM.

B12: TL-let-7g (structured_RNA)
RNA: B11 RNA
Turning to B12, the binding result in [2] (setting [16]), in [3] (setting [16]) and in data set [13] was “binds” in each case.

B13: TL-let-7g 2-AP31 (structured_RNA)
RNA: B11 RNA
modifications: 2-aminopurine at A31
Turning to B13, the “apparent K (half saturation)” value in [14] was determined as 1300 nM.

B14: TL-let-7g GNRA loop (structured_RNA)
RNA: B11 RNA with A24G, C26A, C27A
For B14, the Kd in data set [15] amounted to 0.4 ± 0.2 nM.

B15: TL-let-7g 2-AP36 (structured_RNA)
RNA: B11 RNA
modifications: 2-aminopurine at A36
B15: in [12], the “apparent K (half saturation)” value was approximately 548 nM.

B16: TL-let-7g 2-AP21 (structured_RNA)
RNA: B11 RNA
modifications: 2-aminopurine at A21
With B16, in [12], the “apparent K (half saturation)” value came out at 500 nM.

B17: TL-miR-99b (structured_RNA)
RNA: GCCGCGGGGCCUUCGCCGCACACGGCA
Regarding B17, the Kd in data set [10] was found to be 15 nM.

B18: TL-let-7a-1 (structured_RNA)
RNA: GCAGAUUUAGGGUCACACCCACCACUGGGAGAUAUCUGCA
Turning to B18, the binding result in data set [2] (hairpin) and in [3] (hairpin) was “binds” throughout.

B19: TL33-46 (ssRNA)
RNA: AGGAGAUAUCUGCA
With B19, the Kd in [5] came to 0.5 ± 0.1 nM. Further, the binding result in data set [6] is listed as “no binding”.

B20: TL13-26V (ssRNA)
RNA: UCUAUCAAACCACC
Consider B20, for which the binding result in data set [5] is recorded as “no binding”.

A word on the Kd: it is the constant that tells how readily two partners part at equilibrium.
